# Reference: patent publication US20190092827A1 (University of Texas, published 2019)
# Target: the molecule itself
# Test: solution NMR spectroscopy, monomer-dimer equilibrium (homodimerisation)
protein,measurement,value
"WT MIP-2 (chemokine CXCL2, also known as MIP-2 in mice) (ligand, mouse, UniProt P10889 28-100, looked up, also called native MIP-2; wild-type (WT) chemokine) AVVASELRCQCLKTLPRVDFKNIQSLSVTPPGPHCAQTEVIATLKGGQKVCLDPEAPLVQKIIQKILNKGKAN",Kd,10 µM
